Reference: the supplement of paper PMC7877785
± gives the uncertainty stated by the source.

Experiment: self-splicing fitness, log relative to wild type (ln ratio); higher = more splicing; Tetrahymena group I intron in knt gene, E. coli kanamycin selection, DiMSum; sequences stand for … in CUCUCU…GGAGGGAAAAGUUAUCAGGCAUGCACCUGGUAGCUAGUCUUUAAACCAAUAGAUUGCAUCGGUUUAAAAGGCAAGACCGUCAAAUUGCGGGAAAGGGGUCAACAGCCGUUCAGUACCAAGUCUCAGGGGAAACUUUGAGAUGGCCUUGCAAAGGGUAUGGUAAUAAGCUGACGGACAUGGUCCUAACCACGCAGCCAAGUCCUAAGUCAACAGAUCUUCUGUUGAUAUGGAUGCAGUUCACAGACUAAAUGUCGGUCGGGGAAGAUGUAUUCUUCUCAUAAGAUAUAGUCGGACCUCUCCUUAAUGGGAGCUAGCGGAUGAAGUGAUGCAACACUGGAGCCGCUGGGAACUAAUUUGUAUGCGAAAGUAUAUUGAUUAGUUUUGGAGUACUCGUGGUCG
How it was run: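 The eight P1ex-region nucleotides of an intron in the knt kanamycin-resistance gene on pET-22b(+) were all randomised and the library put into E. coli BL21(DE3). Six replicate transformations were grown overnight at 37°C or 30°C on LB agar with or without 25 μg/mL kanamycin, together with 100 μg/mL carbenicillin, 50 μM IPTG and 0.2% rhamnose. Colonies were pooled and amplicon-sequenced on an Illumina HiSeq 2500. Fitness from DiMSum is the error-weighted combination of wild-type-normalised replicate fold changes, kanamycin over none.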

Row | Sequence | self-splicing fitness (ln) (30 °C) | self-splicing fitness (ln) (37 °C)
1 | CAUGAGCAAUAUUACGACGC | -3.01 ± 0.23 | -1.99 ± 0.3
2 | AUACAGCAAUAUUACGAUUA | -1.18 ± 0.11 | -0.625 ± 0.11
3 | GCAAAGCAAUAUUACGGUCU | -1.38 ± 0.087 | 0.608 ± 0.1
4 | UAGCAGCAAUAUUACGGUCA | -0.671 ± 0.07 | 0.278 ± 0.085
5 | UUGUAGCAAUAUUACGAGAU | -2.41 ± 0.33 | -2.32 ± 0.31
6 | CAAAAGCAAUAUUACGGUAU | -3.42 ± 0.15 | -2.67 ± 0.15
7 | CAUCAGCAAUAUUACGUCAA | -3.09 ± 0.15 | -2.38 ± 0.15
8 | UACCAGCAAUAUUACGACUC | -2.5 ± 0.18 | -1.65 ± 0.2
9 | UCGGAGCAAUAUUACGUCGA | -0.356 ± 0.42 | -0.949 ± 0.3
10 | UUUAAGCAAUAUUACGCCGA | -0.292 ± 0.13 | 0.0683 ± 0.15
11 | CGGAAGCAAUAUUACGUGAA | -3.4 ± 0.17 | -1.66 ± 0.15
12 | UUCAAGCAAUAUUACGCGAU | -2.11 ± 0.16 | -3 ± 0.34
13 | UACUAGCAAUAUUACGUACG | -2.76 ± 0.1 | -1.31 ± 0.091
14 | UAUCAGCAAUAUUACGGCCC | -2.13 ± 0.28 | -1.05 ± 0.39
15 | ACCAAGCAAUAUUACGACCC | -1.37 ± 0.096 | -0.181 ± 0.15
16 | AUAUAGCAAUAUUACGACUC | -0.877 ± 0.15 | -0.341 ± 0.2
17 | GUUUAGCAAUAUUACGUUGC | -3.73 ± 0.27 | -2.59 ± 0.34
18 | CCAAAGCAAUAUUACGCAAG | -1.83 ± 0.12 | -1.52 ± 0.14
19 | CACCAGCAAUAUUACGCAUC | -2.88 ± 0.13 | -3.35 ± 0.23
20 | UUUGAGCAAUAUUACGGGAG | -3.55 ± 0.28 | -1.99 ± 0.19
21 | UGACAGCAAUAUUACGUCAU | -3.99 ± 0.27 | -2.48 ± 0.18
22 | GGCCAGCAAUAUUACGUCGG | -3.69 ± 0.26 | -1.9 ± 0.24

Row | Sequence | self-splicing fitness (ln) (30 °C) | self-splicing fitness (ln) (37 °C)
23 | CUCGAGCAAUAUUACGCGCA | -2.79 ± 0.48 | 
24 | UUGUAGCAAUAUUACGACGG | -0.599 ± 0.16 | -1.63 ± 0.17
25 | GGCGAGCAAUAUUACGGGGA | -2.39 ± 0.2 | -2.29 ± 0.29
26 | AAAUAGCAAUAUUACGUGUG | -2.05 ± 0.09 | -1.55 ± 0.086
27 | GUGAAGCAAUAUUACGCGCC | -4.14 ± 0.33 | -2.69 ± 0.41
28 | UCGAAGCAAUAUUACGUUGC | -3.36 ± 0.26 | 
29 | AUUCAGCAAUAUUACGGAAA | -1.03 ± 0.12 | -0.365 ± 0.12
30 | CAAUAGCAAUAUUACGUUUA | -3.6 ± 0.19 | -2.13 ± 0.14
31 | ACUAAGCAAUAUUACGUCAG | -2.63 ± 0.16 | -1.57 ± 0.23
32 | AGGUAGCAAUAUUACGAGUA | -2.415 ± 0.023 | -1.52 ± 0.035
33 | UCAUAGCAAUAUUACGUUGA | -3.91 ± 0.29 | -2.75 ± 0.16
34 | UAAUAGCAAUAUUACGGACC |  | -1.42 ± 0.29
35 | AGAGAGCAAUAUUACGGCUC | -3.01 ± 0.27 | -1.37 ± 0.25
36 | UGAAAGCAAUAUUACGACCU | -0.0194 ± 0.1 | 0.188 ± 0.12
37 | CUUUAGCAAUAUUACGAUGG | -1.01 ± 0.1 | -0.752 ± 0.13
38 | GCGUAGCAAUAUUACGCUAA | -3.9 ± 0.27 | -2.25 ± 0.21
39 | GACCAGCAAUAUUACGCUAA | -1.18 ± 0.078 | 0.196 ± 0.093
40 | CAGUAGCAAUAUUACGGCAA | -3.53 ± 0.39 | -1.86 ± 0.27
41 | UGGGAGCAAUAUUACGCAUA | -1.98 ± 0.27 | -1.22 ± 0.22
42 | GUAUAGCAAUAUUACGUUAC | -3.43 ± 0.41 | 
43 | CGGAAGCAAUAUUACGUGAG | -0.991 ± 0.058 | -0.391 ± 0.085
